Reference: patent publication US8455448B2, “Myostatin isoform” (Myostin Therapeutics Pty Ltd, priority 2004, dated 2013)

Key:
[1] = system: human skeletal muscle myoblasts; test: Proliferation assay of human primary myoblasts (methylene blue); type: cell-based; details: 0-10 μg/ml, 96 h, FIG. 12B
Experimental: Human skeletal muscle myoblasts (Cambrex, Australia) were seeded in 96-well tissue culture plates (Nunc, Roskilde, Denmark) at a cell density of 2000 cells per well in 200 μl of Skeletal Muscle Basal Medium (Cambrex, Australia) supplemented with foetal bovine serum (FBS, 10% v/v, Cambrex, Australia), and incubated overnight at 37° C. with 5% CO2. The medium was replaced with Dulbecco's modified Eagle's medium (DMEM, Invitrogen, California) supplemented with 5% foetal bovine serum (FBS, Invitrogen, California), penicillin (1×10^5 IU/l, Sigma, St Louis, Mo., USA) and streptomycin (100 mg/l, Sigma) buffered with NaHCO3 containing phenol red (7.22 nmol/l) as a pH indicator with 0, 0.1, 1, 5 and 10 μg/ml rhMSV38 or roMSV47 protein in a semi-random arrangement of eight replicates (n=8) for each test medium. Plates were incubated at 37° C. with 5% CO2 for 96 hours, and then the medium was removed. The wells were washed with 200 μl of phosphate buffered saline (PBS, Oxoid, UK) buffer and fixed with 100 μl of 10% formaldehyde, 0.9% NaCl solution for at least one hour. The fixative was then removed and 100 μl of 1% methylene blue stain in 0.01 M borate buffer (pH 8.5) was added to each well and incubated for 30 min at room temperature. Excess stain was removed by four sequential washes in borate buffer. Methylene blue was eluted from the cells by the addition of 100 μl 1:1 (v/v) ethanol/0.1 HCl. The plates were gently shaken and the absorbance was measured at 655 nm using a microplate photometer (VersaMax, Molecular Devices, CA).
Human skeletal muscle myoblasts (Cambrex, Australia) were seeded in 96-well tissue culture plates (Nunc, Roskilde, Denmark) at a cell density of 2000 cells per well in 200 μl of Skeletal Muscle Basal Medium (Cambrex, Australia) supplemented with foetal bovine serum (FBS, 10% v/v, Cambrex, Australia), and incubated overnight at 37° C. with 5% CO2. The medium was replaced with Dulbecco's modified Eagle's medium (DMEM, Invitrogen, California) supplemented with 5% foetal bovine serum (FBS, Invitrogen, California), penicillin (1×10^5 IU/l, Sigma, St Louis, Mo., USA) and streptomycin (100 mg/l, Sigma) buffered with NaHCO3 containing phenol red (7.22 nmol/l) as a pH indicator with no added protein, 1.5 or 3.0 μg/ml recombinant bovine mature myostatin alone and with combination of 0.3, 1, 3, 10 molar ratio of rhMSV38 to myostatin, and the same amounts of rhMSV38 without myostatin in a semi-random arrangement of eight replicates (n=8) for each test medium. Plates were incubated at 37° C. with 5% CO2 for 48 hours, and then the medium was removed. […] The plates were gently shaken and the absorbance was measured at 655 nm using a microplate photometer (VersaMax, Molecular Devices, CA).

[2] = system: developmental myosin heavy chain (dMHC); test: Developmental myosin heavy chain (dMHC) protein in C2C12 myotubes (Western blot); type: cell-based, murine; details: FIG. 5
Experimental: (§1) To investigate whether roMSV65 regulates myoblast differentiation or myotube hypertrophy, C2C12 myoblast cultures were employed. Levels of well-established early and late molecular markers of myogenic differentiation like myogenin and dMHC were measured in the presence and absence of roMSV65 protein.
(§2) C2C12 myoblasts were seeded in 10 cm diameter tissue culture plates (Nunc, Roskilde, Denmark) at a cell density of 25,000 cells per cm^2 in 10 ml of Dulbecco's modified Eagle's medium (DMEM, Invitrogen, California) supplemented with foetal bovine serum (FBS, 10% v/v, Invitrogen), penicillin (1×10^5 IU/l, Sigma, St Louis, Mo., USA) and streptomycin (100 mg/I, Sigma) buffered with NaHCO3 containing phenol red (7.22 nmol/l) as a pH indicator, and incubated overnight at 37° C. with 5% CO2.
To study myoblast differentiation, the medium was replaced with the test medium: DMEM with 2% Horse Serum supplemented with 0, 0.1, 1 or 10 μg/ml roMSV65 in three replicates for each concentration (n=3). Plates were incubated at 37° C. with 5% CO2 for 72 hours.
Cells were removed from the plate by trypsin treatment, washed with phosphate buffered saline (PBS, Oxoid, UK) and resuspended in 200 μl of lysis buffer (10 mM Hepes pH 7.9, 1.5 mM MgCl2, 10 mM KCl, 0.5% NP40, one Complete protease inhibitor tablet [Roche Diagnostics, USA] per 50 ml buffer). The protein concentration was estimated using the bicinchoninic acid (BCA, Sigma, Missouri) protein assay. 20 μg of total protein was separated by SDS-PAGE (8% for MHC or 12% for myogenin) and transferred to nitrocellulose membrane by electroblotting. The blots were stained with Ponceau S stain to check equal loading. […] Band intensities were measured with a GS800 densitometer (Bio-Rad, CA).

myogenin = test: Myogenin protein in differentiating C2C12 myoblasts (Western blot); type: cell-based, murine; details: 0, 0.1, 1, 10 μg/ml, 72 h in differentiation medium, FIG. 4
Experimental: as §1, §2
To study myoblast differentiation, the medium was replaced with the test medium: DMEM with 2% Horse Serum supplemented with 0, 0.1, 1 or 10 μg/ml roMSV65 in three replicates for each concentration (n=3). […]
Cells were removed from the plate by trypsin treatment, washed with phosphate buffered saline (PBS, Oxoid, UK) and resuspended in 200 μl of lysis buffer (10 mM Hepes pH 7.9, 1.5 mM MgCl2, 10 mM KCl, 0.5% NP40, one Complete protease inhibitor tablet [Roche Diagnostics, USA] per 50 ml buffer). […] Band intensities were measured with a GS800 densitometer (Bio-Rad, CA).

roMSV47: 47 amino acid C-terminal mature ovine MSV fragment (SEQ ID NO: 50), recombinant from E. coli (IIFLEVYIQFCSILGEAVFKRQSKSIHFCQNFKIIACLCNTAAFRMK; Ovis aries)
proliferation of human myoblasts [1]: able to stimulate human myoblast proliferation

B1: roMSV65: 65 amino acid C-terminal peptide of ovine MSV (SEQ ID NO: 49) expressed as recombinant protein in E. coli (protein)
chain: VHFYTPPYGQWIFHKERKIIFLEVYIQFCSILGEAVFKRQSKSIHFCQNFKIIACLCNTAAFRMK
modifications: Ovis aries
increase in dMHC abundance compared to untreated controls ([2]; 0.1 μg/ml roMSV65, 72 h): 18 fold | increase in dMHC abundance compared to untreated controls ([2]; 1 μg/ml roMSV65, 72 h): 20 fold | increase in dMHC abundance compared to untreated controls ([2]; 10 μg/ml roMSV65, 72 h): 2 fold | myogenin protein levels in C2C12 myotubes (myogenin): dose-dependently increases myogenin protein levels
